Results taken from patent publication US11634477 (dated 2023).
Residue numbers refer to the chain shown, from its start.

B1: C152 (antibody, V domains shown)
VH: QVQLVQSGAEVKKPGASVKVSCKASGYTFTSYGISWVRQAPGQGLEWMGWISAYNGNTNYAQKLQGRVTMTTDTSTSTAYMELRSLRSDDTAVFYCARDRGGHDFWSGYGFYYYYGMDVWGQGTTVTVSS
VL: DIQMTQSPSSLSASVGDRVTITCRASQGISNYLAWYQQRPGKVPKLLIFAASTLQSGVPSRFSGSGSGTDFTLTISSLQPEDVATYYCQKYNSAPRTFGQGTKVEIK
B2: C163 (antibody, V domains shown)
VH: QVQLQQWGAGLLKPSETLSLTCAVSGGSLSGFYWTWIRQPPGKGLEWIGETNHFGSTDYKPSLKSRVTISVDMSRNQFSLKVTSVTAADTAVYYCARKPLLHSDLSPGAFDIWGQGTMVTVSS
VL: EIVLTQSPGTLSLSPGERATLSCRASQTVSANYLAWYQQKAGQAPRLLIYGASKRATGIPDRFSGSGSGTDFTLSISRLEPEDFAVYYCQQYVTTPRTFGGGTKVEI
B3: C161 (antibody, V domains shown)
VH: B2 VH with K81I, V82M, P99T, H102F, L105F
VL: B2 VL with V29L, S30T, A41P, V93G
B4: C162 (antibody, V domains shown)
VH: B2 VH with P61A, D72G, V85L, H102Y, L105F, I112V
VL: B2 VL with V29L, S30T, A41P, T57A, S77T, V93H
B5: C101 (antibody, V domains shown)
VH: QVQLVESGGGLIQPGGSLRLSCAASGFIVSSNYMSWVRQAPGKGLEWVSVIYSGGSTFYTDSVKGRFTISRDNSKNTLYLQMNSLRAEDTAVYYCVRDYGDFYFDYWGQGTLVTVSS
VL: EIVLTQSPGTLSLSPGERATLSCRASQSVSSSYLAWYQQKPGQAPRLLIYGASSRATGIPDRFSGGGSETDFTLTISRLEPEDCAVYYCQQYGSSPRTFGQGTKVEIK
B6: C160 (antibody, V domains shown)
VH: QVQLVQSGAEVKKPGASVKVSCKASGYTFTSYGISWVRQAPGQGLEWMGWISAYNGNTNYAQKLQGRVTMTTDTSTSTAYMELRSLRSDDTAVYYCARVPASYGDDDYYYYYGMDVWGQGTTVTVSS
VL: SYELTQPPSVSVSPGQTARITCSGDALPKQYAYWYQQKPGQAPVLVIYKDSERPSGIPERFSGSSSGTTVTLTISGVQAEDEADYYCQSADSSGTLWVFGGGTKLTVL
B7: C149 (antibody, V domains shown)
VH: QVQLVESGGGVVQPGRSLRLSCAASGFTFSTYGMHWVRQAPGKGLEWVAVISYDGSNKYFADSVKGRFTISRDNSKNTLYLQMNSLRPEDTAVYYCAKVGMEYSSGWYGEEIDFWGQGTLVTVSS
VL: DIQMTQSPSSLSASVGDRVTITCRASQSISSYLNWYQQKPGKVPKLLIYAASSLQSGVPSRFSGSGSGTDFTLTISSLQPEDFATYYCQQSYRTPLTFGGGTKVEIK
B8: C119 (antibody, V domains shown)
VH: QVQLVQSGAEVKKPGASVKVSCKASGYTFTSYYMHWVRQAPGQGLEWMGIINPSGGSTSYAQKLQGRVTMTRDTSTSTVYMELSSLRSEDTAVYYCARANHETTMDTYYYYYYMDVWGKGTTVTVSS
VL: QSALTQPASVSGSPGQSITISCTGTSSDVGGYKYVSWYQRHPGKAPKLMIYDVSNRPSGVSNRFSGSKSGNTASLTISGLQAEDEADYYCSSYTSSSTSVVFGGGTQLTVL
B9: C106 (antibody, V domains shown)
VH: QLQLQESGPGLVKPSETLSLTCTVSGASVSSGSYYWSWIRQPPGKGLEWIGYIYYSGSTNYNPSLKSRVTISVDTSKNQFSLKLSSVTAADTAVYYCARERPGGTYSNTWYTPTDTNWFDTWGQGTLVTVSS
VL: SYELTQPPSVSVAPGKTARITCGGNNIGSKSVHWYQQKPGQAPVLVIYFDSDRPSGIPERFSGSNSGNTATLTISRVEAGDEADYYCQVWDSSRDHVVFGGGTKLTVL
B10: C040 (antibody, V domains shown)
VH: not shown
VL: B9 VL with K16Q, I47V, F49D, R94S, H96Q, V97G
B11: C037 (antibody, V domains shown)
VH: QLVQSGPEVKKPGTSVKVSCKASGFTFTSSAMQWVRQARGQRLEWIGWIVVGSGNTNYAQKFQERVTITRDMSTSTAYMELSSLRSEDTAVYYCAAPYCSGGSCNDAFDIWGQGTMVTVSS
VL: not shown
B12: C038 (antibody, V domains shown)
VH: VQLVESGGGVVQPGRSLRLSCAASGFTFNRIAMYWVRQAPGKGLEWVAVISFDGSYEYYAESVKGRFAISRDNSKNTLYLQMNSLRAEDTAVYYCAKSPMGYCTNGVCYPDSWGQGTLVTVSS
VL: NFMLTQPHSVSESPGKTVTISCTGSSGSIASNYVQWYQQRPGSAPTTVIYEDTQRPSGVPDRFSGSIDSSSNSASLTISGLKTEDEADYYCQSYDINSRWVFGGGTKLTVL
B13: C212 (antibody, V domains shown)
VH: QVQLVQSGAEVKKPGASVKVSCKASGYTVTGYYIHWVRQAPGQGLEWMGWISPNSGGTNYAQKFQGWVTMTRDMSITTAYMELSRLRSDDTAVYYCARERYFDLGGMDVWGQGTTVTVSS
VL: LTQPASVSGSPGQSITISCTGTSSDVGSYNLVSWYQQHPGKAPKLMIYEDSKRPSGVSNRFSGSKSGNTASLTISGLQAEDEADYYCCSYAGSSTRLFGGGTKLTVL
B14: C032 (antibody, V domains shown)
VH: EVQLVQSGAEVKKPGESLKISCKGSGYSFTSYWIGWVRQMPGKGLEWMGIIYPGDSDTRYSPSFQGQVTISADKSISTAYLQWSSLKASDTAMYYCARGVAVDWYFDLWGRGTLVTVSS
VL: QSVLTQPPSVSGAPGQRVTISCTGSSSNIGAGYDVHWYQQLPGTAPKLLIYGNSNRPSGVPDRFSGSKSGTSASLAITGLQAEDEADYYCQSYDSSLSALYVFGTGTKVTVL
B15: C036 (antibody, V domains shown)
VH: QVQLQQWGAGLLKPSETLSRTCAVFGGSFTNYYWSWIRQSPGKGLEWIGEINDSGITNYNPSLKSRVTISVDTSKNQFSLSLRSVTAADTAVYYCARRRSFSRPSSIDYWGQGTLVTVSS
VL: not shown
B16: C129 (antibody, V domains shown)
VH: QVQLVESGGGVVQPGRSLRLSCAASGFTFSSYGMNWVRQAPGKGLEWVAVISYDGSNTYYTDSVKGRFTISRDNSKNTLYLQMNSLRVDDTATYYCAKGPRFGWSYRGGSGFDIWGQGTMVTVSS
VL: DIQMTQSPSSLSASVGDRVTITCQASQDISNYLNWYQQKPGKAPKLLIYDASNLETGVPSRFSGSESGTDFTFTISSLQPEDIATYYCQQYDNLPITFGQGTRLEIK
B17: C135 (antibody, V domains shown)
VH: QVQLVESGGGVVQPGRSLRLSCAASGFTFSSYAMHWVRQAPGKGLEWVAVIPFDGRNKYYADSVTGRFTISRDNSKNTLYLQMNSLRAEDTAVYYCASSSGYLFHSDYWGQGTLVTVSS
VL: DIQMTQSPSTLSASVGDRVTITCRASQSISNWLAWFQQKPGKAPKLLIYEASSLESGVPSRFSGSGSGTEFTLTISSLQPDDFATYYCQQYNSYPWTFGQGTKVEIK

How the values were obtained:
SARS-CoV-2 RBD = SARS-CoV-2 RBD (SARS-CoV-2, UniProt P0DTC2); experiment: ELISA
SARS-CoV RBD = SARS-CoV RBD (SARS-CoV, UniProt P59594); experiment: ELISA

Binder	EC50 (SARS-CoV-2 RBD) [ng/mL]	EC50 (SARS-CoV RBD) [µg/mL]
B1	1.88	–
B2	1.77	–
B3	1.63	–
B4	1.18	–
B5	1.51	> 1
B6	2.54	–
B7	1.79	–
B8	3.57	> 1
B9	19	0.107
B10	11.1	–
B11	1.93	–
B12	4.69	–
B13	> 1000	> 1
B14	99.3	–
B15	64.1	–
B16	1.16	–
B17	–	> 1
